Test results taken from article PMC6033896, “Discovery of Mcl-1 inhibitors from integrated high throughput and virtual screening” (Scientific Reports, 2018).
pKd: −log10 of the molar value.

Molecular target: recombinant Bfl-1 protein (UniProt Q16548)
Experiment: fluorescence polarisation; direct binding of the fluorescent Bid probe to recombinant protein; Ex 485 nm, Em 530 nm, room temperature; buffer of the Kd determination not told apart from the two competitive assay buffers

Sequence of recombinant Bfl-1 protein (Q16548 whole entry): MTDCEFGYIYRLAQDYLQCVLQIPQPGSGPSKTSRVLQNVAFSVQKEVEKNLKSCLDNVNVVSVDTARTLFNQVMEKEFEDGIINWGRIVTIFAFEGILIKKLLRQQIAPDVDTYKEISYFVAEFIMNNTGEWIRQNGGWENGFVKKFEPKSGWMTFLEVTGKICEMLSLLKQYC

fluorescent labelled Bid BH3 peptide
pKd: 9.52
